From patent US12384831 (SHINSHU UNIVERSITY, dated 2025)

Molecular target: recombinant human LOX-1 (61-273aa) (human, UniProt P78380 61-273)
Assay: sandwich ELISA, LOX-1 immobilized, detection by anti-ApoA I antibody
Method: The recombinant human LOX-1 (61-273aa) or protein Dectin-1 belonging to the same family with LOX-1 for the contrast reference was immobilized on the ELISA plate at 4° C. overnight. After washing with PBS, it was blocked by HEPES buffer including 3% BSA (10 mM HEPES, 150 mM NaCl, pH7.4). After washing PBS three times, oxidized HDL, HDL, oxidized LDL and LDL were respectively added thereto, and they were incubated. After washing with PBS, chicken anti-ApoA I monoclonal antibody (chicken monoclonal […]) or HRP-labeled anti-ApoA I polyclonal antibody (sheep polyclonal […]) was added thereto. When chicken anti-ApoA I monoclonal antibody was used, chicken anti-ApoA I monoclonal antibody was added thereto and reacted for 1 hour at room temperature and then it was washed with PBS and secondary antibody: HRP-labeled Donkey anti-chicken IgY was added and incubated for 1 hour at room temperature.
After the antibody response, it was washed with PBS for 5 times. And then, TMB solution was added onto the plate and made it react them at room temperature. After stopping the reaction by 2M sulfuric acid, the absorbency at 450 nm was determined by using SpectraMax 340PC384 (Molecular Devices) to detect the oxidized HDL bound. […]

B1: fusion protein of Fv-type anti-LOX-1 antibody (#10-1) and human ApoA I (31-267aa) (other)
chain: EVKLLESGGGLVQPGGSLKLSCAVSGFDFSRYWMSWVRQAPGKGLEWIGEINPDSSTINFTPSLKDKFIVSRDNAKNTLYLQMSKVRSEDTALYYCARNDVLLGAMDYWGQGTSVTVSSGGGGSGGGGSGGGGSDVLMTQTPLSLPVSLGDQASISCRSSQTIVHSNGKTYLEWYLQKPGQSPKLLIYKVSNRFSGVPDRFSGSGSGTDFTLKISRVEAEDLGVYYCFQGSHVPLTFGAGTKLELKGGGGSGGGGSGGGGSPWDRVKDLATVYVDVLKDSGRDYVSQFEGSALGKQLNLKLLDNWDSVTSTFSKLREQLGPVTQEFWDNLEKETEGLRQEMSKDLEEVKAKVQPYLDDFQKKWQEEMELYRQKVEPLRAELQEGARQKLHELQEKLSPLGEEMRDRARAHVDALRTHLAPYSDELRQRLAARLEALKENGGARLAEYHAKATEHLSTLSEKAKPALEDLRQGLLPVLESFKVSFLSALEEYTKKLNTQ
notes: Expressed from the pEF6-V5-His vector in Expi293 cells, secreted and His-purified; also called chimeric protein; artificial recombinant protein
binding result: binds
